This test addresses T1, HNF-4α (Homo sapiens, UniProt P41235).
T1 construct: expressed in transfected cells; host or cells: HEK293T
T1 sequence (P41235 10-474): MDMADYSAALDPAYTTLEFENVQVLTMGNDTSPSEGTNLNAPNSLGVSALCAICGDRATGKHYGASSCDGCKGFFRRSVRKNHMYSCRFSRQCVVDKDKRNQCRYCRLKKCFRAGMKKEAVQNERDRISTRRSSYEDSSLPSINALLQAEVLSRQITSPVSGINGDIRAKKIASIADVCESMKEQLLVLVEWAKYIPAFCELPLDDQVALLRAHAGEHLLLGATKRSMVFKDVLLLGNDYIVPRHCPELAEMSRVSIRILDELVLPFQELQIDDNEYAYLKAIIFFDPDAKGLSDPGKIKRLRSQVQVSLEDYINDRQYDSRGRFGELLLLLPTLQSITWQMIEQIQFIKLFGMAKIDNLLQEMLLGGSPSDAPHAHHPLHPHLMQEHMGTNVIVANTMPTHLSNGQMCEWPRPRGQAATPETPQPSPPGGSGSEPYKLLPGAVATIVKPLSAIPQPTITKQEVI
The test is described as follows: In vitro protease assay, HNF-4α captured on resin. It counts as biochemical. As to conditions: 50 μg/ml, 37° C., overnight (O/N), anti-FLAG detection. How it is done:
HNF-4α captured on the resin by immunoprecipitation was used in the experiments in order to eliminate the influence of proteinaceous impurities contained in the HNF-4α soluble fraction. More specifically, 300 μl of HNF-4α soluble fraction was dispensed to six tubes (Nos. 1 to 6), followed by adding 20 μl of protein G sepharose 4 FF (Amersham) of 50% slurry that had been subjected to blocking with BSA, to each of tubes, subjected to overturned mixing at 4° C. for 1 hour, and then subjected to centrifugation (10,000 rpm, 10 sec, 4° C.) to collect the supernatant, and thus the pre-treatment (pre-clean) was performed. The resultant supernatant was mixed with 0.4 μl (2 μg) of anti-FLAG antibody (Sigma) by overturned mixing at 4° C. for 3 hours, followed by adding 20 μl of protein G sepharose 4 FF that had been subjected to blocking with BSA, and then subjected to overturned mixing at 4° C. overnight. Thus, HNF-4α was captured on protein G sepharose 4 FF. […]

B1: mature HtrA2: SEQ ID NO: 4; mature protein generated from HtrA2 precursor by cleavage of N-terminal 133 residues, has protease activity (protein, listed as Homo sapiens)
chain: MAVPSPPPASPRSQYNFIADVVEKTAPAVVYIEILDRHPFLGREVPISNGSGFVVAADGLIVTNAHVVADRRRVRVRLLSGDTYEAVVTAVDPVADIATLRIQTKEPLPTLPLGRSADVRQGEFVVAMGSPFALQNTITSGIVSSAQRPARDLGLPQTNVEYIQTDAAIDFGNSGGPLVNLDGEVIGVNTMKVTAGISFAIPSDRLREFLHRGEKKNSSSGISGSQRRYIGVMMLTLSPSILAELQLREPSFPDVQHGVLIHKVILGSPAHRAGLRPGDVILAIGEQMVQNAEDVYEAVRTQSQLAVQIRRGRETLTLYVTPEVTE
modifications: mature HtrA2
As to B1, the “degradation of HNF-4α (band by western blotting)” value is “the band of HNF-4α was reduced significantly”.

The values above are taken from US20070196354A1, “Method of treating diabetes by inhibiting degradation of at least one of crebl1, atf6, and hnf-4 alpha by htra” (priority 2003, published 2007).
